Assay results from patent US20250388664A1 (BIOARCTIC, published 2025).
Read-outs that look alike come from different tables or passages of the source.

T1: h/m helical domain chimera (SEQ ID NO:113) (human/mouse chimera, UniProt Q62351 90-763 (mouse entry))
T1 construct: also called chimeric TfR1 consisting of human helical domain grafted on mouse TfR1 ectodomain
T1 chain: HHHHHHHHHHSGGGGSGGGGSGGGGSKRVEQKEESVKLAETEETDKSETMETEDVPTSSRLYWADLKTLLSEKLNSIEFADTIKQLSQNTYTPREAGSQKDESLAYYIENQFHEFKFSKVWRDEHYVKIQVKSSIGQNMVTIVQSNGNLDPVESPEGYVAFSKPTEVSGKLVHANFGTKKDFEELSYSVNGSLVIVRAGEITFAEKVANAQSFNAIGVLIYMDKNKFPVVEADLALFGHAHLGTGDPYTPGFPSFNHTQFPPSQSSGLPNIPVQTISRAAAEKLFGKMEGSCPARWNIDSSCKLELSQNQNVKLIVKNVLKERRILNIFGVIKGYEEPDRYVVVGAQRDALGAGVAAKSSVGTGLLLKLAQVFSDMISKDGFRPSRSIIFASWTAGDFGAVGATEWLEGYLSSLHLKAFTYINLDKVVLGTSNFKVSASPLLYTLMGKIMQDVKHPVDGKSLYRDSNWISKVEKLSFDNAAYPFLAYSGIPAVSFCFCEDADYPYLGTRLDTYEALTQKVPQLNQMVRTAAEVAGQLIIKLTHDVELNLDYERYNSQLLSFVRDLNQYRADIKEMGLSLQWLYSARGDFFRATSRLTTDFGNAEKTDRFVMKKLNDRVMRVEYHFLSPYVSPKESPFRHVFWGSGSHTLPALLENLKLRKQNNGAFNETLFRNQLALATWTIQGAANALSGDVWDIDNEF

T2: h/m apical domain chimera (SEQ ID NO:112) (human/mouse chimera)
T2 construct: also called chimeric TfR1 consisting of human apical domain grafted on mouse TfR1 ectodomain
T2 chain: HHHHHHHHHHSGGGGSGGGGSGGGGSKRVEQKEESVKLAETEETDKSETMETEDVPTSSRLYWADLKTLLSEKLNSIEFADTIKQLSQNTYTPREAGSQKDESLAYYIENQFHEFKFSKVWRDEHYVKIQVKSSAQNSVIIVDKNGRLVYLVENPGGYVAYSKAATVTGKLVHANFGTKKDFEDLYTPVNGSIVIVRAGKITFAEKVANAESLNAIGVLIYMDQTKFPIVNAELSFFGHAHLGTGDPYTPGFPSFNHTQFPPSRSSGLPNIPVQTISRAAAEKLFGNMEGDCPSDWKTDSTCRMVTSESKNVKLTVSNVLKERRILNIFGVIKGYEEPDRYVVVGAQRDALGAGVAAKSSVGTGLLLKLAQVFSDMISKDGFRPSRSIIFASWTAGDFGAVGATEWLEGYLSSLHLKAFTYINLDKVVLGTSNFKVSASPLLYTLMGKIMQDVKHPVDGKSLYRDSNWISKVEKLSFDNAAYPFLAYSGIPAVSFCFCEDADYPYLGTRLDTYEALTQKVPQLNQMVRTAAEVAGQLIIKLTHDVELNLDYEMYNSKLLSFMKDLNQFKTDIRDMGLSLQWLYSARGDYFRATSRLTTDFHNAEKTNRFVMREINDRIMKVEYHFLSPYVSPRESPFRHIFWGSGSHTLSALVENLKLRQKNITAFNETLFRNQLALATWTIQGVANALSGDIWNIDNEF

T3: truncated cTfR1 of SEQ ID NO:123 (cynomolgus monkey, UniProt Q5RDH6 122-760 (Pongo abelii entry))
T3 construct: also called cynomolgus TfR1
T3 chain: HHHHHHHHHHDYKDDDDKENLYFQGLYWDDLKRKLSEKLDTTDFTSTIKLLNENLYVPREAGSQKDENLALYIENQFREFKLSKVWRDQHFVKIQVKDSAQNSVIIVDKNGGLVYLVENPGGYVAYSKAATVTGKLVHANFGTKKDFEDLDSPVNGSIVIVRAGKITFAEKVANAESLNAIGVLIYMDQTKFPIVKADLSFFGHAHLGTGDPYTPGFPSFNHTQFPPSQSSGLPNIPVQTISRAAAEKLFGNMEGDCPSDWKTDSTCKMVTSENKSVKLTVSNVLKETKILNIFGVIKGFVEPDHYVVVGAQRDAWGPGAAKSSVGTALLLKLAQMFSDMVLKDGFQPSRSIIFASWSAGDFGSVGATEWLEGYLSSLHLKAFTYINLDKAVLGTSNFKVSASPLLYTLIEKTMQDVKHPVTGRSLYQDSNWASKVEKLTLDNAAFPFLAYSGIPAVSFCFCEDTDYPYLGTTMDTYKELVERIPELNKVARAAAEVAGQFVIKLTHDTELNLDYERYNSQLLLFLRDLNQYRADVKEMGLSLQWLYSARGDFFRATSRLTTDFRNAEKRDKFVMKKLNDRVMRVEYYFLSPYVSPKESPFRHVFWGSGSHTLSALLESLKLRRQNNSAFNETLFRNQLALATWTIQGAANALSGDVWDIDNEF


Key:
[1] = biological target: T1, h/m helical domain chimera (SEQ ID …); experiment: indirect ELISA: plate coated with 1 µg/ml h/m helical domain chimera, mouse IgG titrated, anti-mouse IgG-HRP; x axis printed as 'TfR (ng/ml)'
Protocol: (§1) In the ELISA experiment, human, mouse or three different chimeric TfR1 receptors were used to coat ELISA plates (FIGS. 30A-30E). The ELISA protocol was slightly modified as follows from the indirect ELISA described in Example 15. […] The coated plates were then blocked. Dilution series of mouse IgG of the analyzed antibodies were prepared in PBS and incubated on the ELISA plates. Unbound antibodies were then washed off before incubating wells with a HRP-conjugated secondary, anti-mouse-IgG for 1 h. Plates were then washed again before addition of HRP substrate TMB for development and detection of antibody binding to the wells. TMB development was stopped by adding 0.5 M H₂SO₄ to the wells and ELISA responses measured as the OD at 450 nm in an ELISA plate reader.

[2] = biological target: T2, h/m apical domain chimera (SEQ ID …); experiment: indirect ELISA: plate coated with 1 µg/ml h/m apical domain chimera, mouse IgG titrated, anti-mouse IgG-HRP; x axis printed as 'TfR (ng/ml)'
Protocol: Plasma samples serially diluted from a starting dilution of 1/450 or hybridoma supernatants diluted 1/2 were added to the plates (50 μl/well; dilution buffer: PBS with 0.1% BSA and 0.05% TWEEN®-20) and incubated for 2 h at room temperature and then the plates were washed four times. […] After another wash (as above), 50 μl/well TMB substrate (K-Blue® Aqueous, Neogen) was added, and the reaction was stopped after 10-15 min with 50 μl/well of 0.5 M H₂SO₄. The optical density at 450 nm was read using a plate reader (Tecan). The endpoint titers were defined as the dilution above the average of the blank wells (background) plus 3 standard deviations of the blank wells.
as §1

AβpE3-40 monomer [3] = biological target: T4, AβpE3-40 monomer (UniProt P05067 674-711, pyroglutamate at position 3 (N-terminal residue)); experiment: SPR, antibody immobilised, monomer injected, 1:1 fit
T4 construct: range 3-40 (Aβ numbering); Synthetic peptide (Bachem/Anaspec), verified monomeric by SEC; also called monomeric AβpE3-40

AβpE3-40 monomer [4] = biological target: T4, AβpE3-40 monomer; experiment: cell-based or functional assay
AβpE3-42 protofibrils = biological target: T5, AβpE3-42 protofibrils (UniProt P05067 674-713, pyroglutamate at position 3 (N-terminal residue)); experiment: inhibition ELISA, antigen titrated in solution, AβpE3-40 coat
T5 construct: range 3-42 (Aβ numbering); Soluble aggregates made from AβpE3-42 peptide, purified in the void peak of SEC; also called AβpE3-42 PF
Protocol: (§2) The tested molecules were incubated at a fixed concentration (0.1 μg/ml) with titrating concentrations of the different AβpE3 antigens. After incubation for 45 min at 900 rpm to reach equilibrium, the samples were added to a blocked and washed ELISA plate with an AβpE3-40 coat (0.5 μM). The samples were incubated on the plate for 25 min without shaking followed by washing, incubation with detection antibody, another washing step and finally incubation with alkaline phosphatase substrate.

AβpE3-40 monomer [5] = biological target: T4, AβpE3-40 monomer; experiment: as above
Protocol: as §2

AβpE3-40 monomer [6] = biological target: T4, AβpE3-40 monomer; experiment: SPR, antibody immobilised, monomer injected, 1:1 fit; remark: listed apart in the source
Protocol: Single cycle kinetics with the binding molecules immobilized on a CM5 chip was used to measure binding to the AβpE3-40 monomer. For the measurements, 5 μg/ml of analyte binding molecule was immobilized on the chip. […] Regeneration of the surface between cycles was done by injecting 30 μl 3 M MgCl₂ (Cytiva, cat. No. 29234600). The binding data was fitted to a 1:1 interaction model.

[7] = biological target: T6, truncated hTfR1 of SEQ ID NO:122 (human, UniProt P02786 122-760); experiment: SPR, FLAG-captured TfR1, bispecific injected, 1:1 fit
T6 construct: also called human TfR1; Human TfR1
Protocol: (§3) Binding of the purified bispecific binding molecules produced in Example 47 to human and cynomolgus TfR1 was evaluated using SPR on a Biacore 8K instrument (Cytiva). […] The interaction was measured using the single cycle kinetics method with a contact time of 120 s at a flow rate of 30 μl/min followed by a dissociation time of 600 s. Regeneration of the surface between cycles was done by injecting 10 mM glycine-HCl, pH 1.7. The binding data was fitted to a 1:1 interaction model. The tested molecules were diluted in HBS-EP+ (Cytiva, #BR100669). Experiments were performed at 25° C.

[8] = biological target: T3, truncated cTfR1 of SEQ ID NO:123; experiment: as above
Protocol: as §3

[9] = biological target: T6, truncated hTfR1 of SEQ ID NO:122; experiment: as above; remark: listed apart in the source

T4 sequence (P05067 674-711): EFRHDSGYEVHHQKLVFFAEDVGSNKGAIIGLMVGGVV
T5 sequence (P05067 674-713): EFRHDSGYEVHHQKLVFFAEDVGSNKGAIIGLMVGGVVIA

binding result [1]	binding result [2]	Kd (AβpE3-40 monomer [3]) [nM]	koff (AβpE3-40 monomer [3]) [s⁻¹]	kon (AβpE3-40 monomer [3]) [M⁻¹ s⁻¹]	Uptake of AβpE3-40 monomers in THP-1 cells, EC50 (AβpE3-40 monomer [4]) [nM]	IC50 (AβpE3-42 protofibrils) [nM]	IC50 (AβpE3-40 monomer [5]) [nM]	Kd (AβpE3-40 monomer [6]) [nM]	koff (AβpE3-40 monomer [6]) [s⁻¹]	kon (AβpE3-40 monomer [6]) [M⁻¹ s⁻¹]	Kd [7] [nM]	koff [7] [s⁻¹]	kon [7] [M⁻¹ s⁻¹]	Kd [8] [nM]	koff [8] [s⁻¹]	kon [8] [M⁻¹ s⁻¹]	Kd [9] [nM]	koff [9] [s⁻¹]	kon [9] [M⁻¹ s⁻¹]	Binder
no binding (tested: about 600 ng/ml)	no binding (tested: about 600 ng/ml)																			24B4 (antibody, V domains shown, also called mouse antibody 24B4; clone 24B4) VH: EVQLQQFGAELVKPGTSVKISCKASGYTFTDYNMDWVKQGHGKGLEWIGDINPNYDTTSYSQKFKGKATLTVDKSSSTAYMELRSLTSEDTAVYYCARSEAGNYYWYFDVWGAGTTVTVSS VL: DIVMSQSPSSLAVSVGEKVTMSCKSSQSLLYSSNRKNYLAWYRQKPGQSPKLLIYWASTRESGVPDRFTGSGSGTDFTLTISSVKAEDLAVYSCQQYYNYPYTFGGGTKLEIK
		2.1	0.00011	54000	2	3.1	1.1	2.17	0.00012	55800	190	0.0042	22000	525	0.01	19000	174	0.0038	22000	BA001 (bispecific antibody, human IgG1, kappa) light: EIVLTQSPLSLSVTLGQSASISCRSSQSLLDSNGKTYLHWFILRPGQSPRRLIYLVSILDSGVPDRFSGSGSGTDFTLKISRVEAEDVGVYYCVQGTHFPFTFGSGTKLEIKRTVAAPSVFIFPPSDEQLKSGTASVVCLLNNFYPREAKVQWKVDNALQSGNSQESVTEQDSKDSTYSLSSTLTLSKADYEKHKVYACEVTHQGLSSPVTKSFNRGEC heavy 1: not shown heavy 2: EVQLVQSGAEVVKPGASVRLSCKASGYSFTGFTMNWVRQALGQGLEWMGLINPYNGVTTYNQKFKGRLTMTRDMSTRTVYMDLSSLTYEDTAVYYCTREGNWEGVYWGQGTLVTVSSASTKGPSVFPLAPSSKSTSGGTAALGCLVKDYFPEPVTVSWNSGALTSGVHTFPAVLQSSGLYSLSSVVTVPSSSLGTQTYICNVNHKPSNTKVDKKVEPKSCDKTHTCPPCPAPELLGGPSVFLFPPKPKDTLMISRTPEVTCVVVDVSHEDPEVKFNWYVDGVEVHNAKTKPREEQYNSTYRVVSVLTVLHQDWLNGKEYKCAVSNKALPAPIEKTISKAKGQPREPQVYTLPPCRDELTKNQVSLWCLVKGFYPSDIAVEWESNGQPENNYKTTPPVLDSDGSFFLYSKLTVDKSRWQQGNVFSCSVMHEALHNHYTQKSLSLSPGGGGGSGGGGSGGGGSGGGGSDIQMTQSPSSVSASVGDRVTITCKSSQSLLYSTNQKNYLAWYQQKPGKAPKLLIYWASTRESGVPSRFSGSGSGTDFTLTISSLQPEDFATYYCQQYFIYPRTFGCGTKVEIKGGGGSGGGGSGGGGSGGGGSEVQLVQSGAEVKKPGSSVKVSCKASGYIFTDYNMDWVRQAPGQCLEWIGDINPDADTTSYNEKFKGRATLTVDKSTSTAYMELSSLRSEDTAVYYCARGGYSGSSYYHPMDYWGQGTLVTVSS
